{
  "source": "patent US20110136223A1",
  "about": "(Genentech, published 2011)",
  "key": {"[1]": {"biological_target": "T1, rat NTNRα, endogenous on embryonic (E14) rat spinal motoneurons (rat)", "T1 sequence (chain, GPI-linked)": "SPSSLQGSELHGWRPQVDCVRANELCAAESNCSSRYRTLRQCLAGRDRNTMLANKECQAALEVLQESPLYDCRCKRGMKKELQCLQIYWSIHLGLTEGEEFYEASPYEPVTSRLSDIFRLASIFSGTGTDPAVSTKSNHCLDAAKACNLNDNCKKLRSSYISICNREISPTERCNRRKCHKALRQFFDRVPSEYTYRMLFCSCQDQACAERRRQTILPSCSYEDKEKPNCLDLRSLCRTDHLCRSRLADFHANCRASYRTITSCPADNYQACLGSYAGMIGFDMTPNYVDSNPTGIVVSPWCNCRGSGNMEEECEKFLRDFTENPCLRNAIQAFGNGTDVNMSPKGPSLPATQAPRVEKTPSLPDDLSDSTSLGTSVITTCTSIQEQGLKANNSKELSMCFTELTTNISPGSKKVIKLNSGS", "assay": "cell-based or functional assay"}, "[2]": {"biological_target": "T2, recombinant soluble rat GDNFRα (rat, UniProt Q62997 25-430, limits assumed)", "T2 construct": "also called rGDNFRα; GFR-alpha-1", "T2 sequence": "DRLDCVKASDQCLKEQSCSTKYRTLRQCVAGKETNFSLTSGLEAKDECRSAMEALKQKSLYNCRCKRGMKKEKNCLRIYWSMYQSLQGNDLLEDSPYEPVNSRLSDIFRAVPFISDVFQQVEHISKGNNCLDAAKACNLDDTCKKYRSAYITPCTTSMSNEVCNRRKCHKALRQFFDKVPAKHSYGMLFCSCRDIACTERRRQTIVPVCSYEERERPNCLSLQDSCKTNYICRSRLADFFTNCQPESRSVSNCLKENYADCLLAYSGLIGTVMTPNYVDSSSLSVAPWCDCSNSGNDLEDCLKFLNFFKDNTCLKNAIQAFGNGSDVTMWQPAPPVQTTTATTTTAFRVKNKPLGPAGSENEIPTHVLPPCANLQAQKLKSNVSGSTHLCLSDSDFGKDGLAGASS", "assay": "displacement of 125I-rGDNF from soluble GDNFRα by unlabeled NTN (10 nM)"}, "[3]": {"biological_target": "T2, recombinant soluble rat GDNFRα", "assay": "competition binding of 125I-rGDNF to soluble rGDNFRα, Scatchard analysis"}, "[4]": {"biological_target": "T2, recombinant soluble rat GDNFRα", "assay": "binding of biotinylated NTN"}},
  "data": [
    {"binder": "Neurturin (NTN), species not stated at the place of use (ligand, UniProt Q99748 96-197, looked up, species assumed) Neurturin: ARLGARPCGLRELEVRVSELGLGYASDETVLFRYCAGACEAAARVYDLGLRRLRQRRRLRRERVRAQPCCRPTAYEDEVSFLDAHSRYHTVHELSARECACV", "values": [
      {"measurement": "reduction of the motoneuron survival response to NTN after PIPLC treatment (FIG. 7C)", "setting": "[1]", "value": "50 to 90", "unit": "%"},
      {"measurement": "survival of E14 rat spinal motoneurons, counted 72 hours after addition of factor", "setting": "[1]", "value": 50, "unit": "%"},
      {"measurement": "Kd", "setting": "[2]", "value": "> 1", "unit": "nM"}
    ]},
    {"binder": "rat glial cell line-derived neurotrophic factor (ligand, UniProt Q07731 78-211, looked up, 125I-labelled when used as tracer (iodinated either on tyrosine by the Bolton Hunter method or on lysine using lactoperoxidase), also called rGDNF; rat GDNF) SPDKQAAALPRRERNRQAAAASPENSRGKGRRGQRGKNRGCVLTAIHLNVTDLGLGYETKEELIFRYCSGSCEAAETMYDKILKNLSRSRRLTSDKVGQACCRPVAFDDDLSFLDDSLVYHILRKHSAKRCGCI", "values": [
      {"measurement": "Kd", "setting": "[3]", "value": 3, "unit": "pM"}
    ]},
    {"binder": "mouse Neurturin (ligand, UniProt P97463 96-195, looked up, 125I-labelled when used as tracer, also called mouse NTN; mNTN) PGARPCGLRELEVRVSELGLGYTSDETVLFRYCAGACEAAIRIYDLGLRRLRQRRRVRRERARAHPCCRPTAYEDEVSFLDVHSRYHTLQELSARECACV", "values": [
      {"measurement": "Kd", "setting": "[4]", "value": "> 1", "unit": "mM"}
    ]}
  ]
}
